{
  "source": "patent CN116199779A",
  "about": "(BEIJING DONGFANG BIOTECH CO LTD; BEIJING JINGYI TAIXIANG …, dated 2023)",
  "binders": {"B1": {"name": "人源化抗体HA-Ⅲ (human IgG1, Ck) (antibody, V domains shown)", "VH": "EVQLVESGGGLVKPGGSLRLSCAASGFTFSSYTMSWVRQAPGKGLEWVATISSGGTYTYYPDSVKGRFTISRDNAKNSLYLQMNSLRAEDTAVYYCTRDGYDGFDYWGQGTTVTVSS", "VL": "DIVMTQTPLSLSVTPGQPASISCRSSQSLAHSNGNTYLHWYLQKPGQSPKLLIYKVSNRFSGVPDRFSGSGSGTDFTLKISRVEAEDVGVYFCSQSTHVPTFGGGTKVEIKR", "notes": "also called HA-III"}, "B2": {"name": "人源化抗体HA-Ⅰ (human IgG1, Ck) (antibody, V domains shown)", "VH": "B1 VH with A49S, T97A", "VL": "B1 VL with K50Q, F92Y", "notes": "also called HA-I"}, "B3": {"name": "人源化抗体HB-Ⅰ (human IgG1, Ck) (antibody, V domains shown)", "VH": "QVQLVQSGAEVKKPGASVKVSCKASGYTFTNYWMHWVRQAPGQGLEWIGEINPSNGRTNYNEKFKTRATLTVDTSTSTAYMELSSLRSEDTAVYYCARWGQLGLREGYYAVDYWGQGTLVTVSS", "VL": "DIQMTQSPSSLSASVGDRVTITCRASQDISNYLNWYQQKPGKAPKLLIYYTSRLHSGVPSRFSGSGSGTDYTFTISSLQPEDIATYYCQQGNTLPPTFGGGTKVEIKR", "notes": "also called HB-I"}, "B4": {"name": "MA-Ⅰ 鼠源抗LILRB4单克隆抗体 (mouse IgG1, Ck) (antibody)", "heavy": "not shown", "light": "DIVMTQTTLSLPVSPGDQASISCRSSQSLAHSNGNTYLHWYLQKPGQSPKLLIYKVSNRFSGVPDRFSGSGSGTDFTLKISRVEAEDLGVYFCSQSTLVPTFGGGTKLEIKADAAPTVSIFPPSSEQLTSGGASVVCFLNNFYPKDINVKWKIDGSERQNGVLNSWTDQDSKDSTYSMSSTLTLTKDEYERHNSYTCEATHKTSTSPIVKSFNRNEC", "notes": "also called MA-I; 鼠源抗体MA-Ⅰ"}},
  "key": {"LILRB4抗原 (人LILRB4蛋白胞外段) [1]": {"target": "T1, LILRB4抗原 (人LILRB4蛋白胞外段) (human, UniProt Q8NHJ6 22-259)", "T1 construct": "extracellular domain; also called 白细胞免疫球蛋白样受体亚家族B成员4", "test": "ELISA, coated LILRB4, anti-human IgG-HRP"}, "THP-1细胞表面的LILRB4 [2]": {"target": "T2, THP-1细胞表面的LILRB4 (human, UniProt Q8NHJ6 22-448)", "test": "cell-based or functional assay"}, "THP-1细胞表面的LILRB4 [3]": {"target": "T2, THP-1细胞表面的LILRB4", "test": "flow cytometry on THP-1 cells"}, "THP-1细胞表面的LILRB4 [4]": {"target": "T2, THP-1细胞表面的LILRB4", "test": "flow cytometry competition on THP-1 cells; competitor FITC-labelled ApoE"}, "THP-1细胞表面的LILRB4 [5]": {"target": "T2, THP-1细胞表面的LILRB4", "test": "cell-based or functional assay", "remark": "listed apart in the source"}, "THP-1细胞表面的LILRB4 [6]": {"target": "T2, THP-1细胞表面的LILRB4", "test": "cell-based or functional assay", "remark": "listed apart in the source"}, "THP-1细胞表面的LILRB4 [7]": {"target": "T2, THP-1细胞表面的LILRB4", "test": "flow cytometry on THP-1 cells, FITC anti-mouse IgG"}, "LILRB4抗原 (人LILRB4蛋白胞外段) [8]": {"target": "T1, LILRB4抗原 (人LILRB4蛋白胞外段)", "test": "ELISA, coated LILRB4, anti-mouse IgG-HRP"}, "THP-1细胞表面的LILRB4 [9]": {"target": "T2, THP-1细胞表面的LILRB4", "test": "flow cytometry competition on THP-1 cells; competitor FITC-labelled ApoE", "remark": "listed apart in the source"}, "LILRA4 [10]": {"target": "T3, LILRA4 (UniProt P59901 24-446, limits assumed)", "T3 construct": "construct not described", "T3 sequence (P59901 24-446 limits assumed)": "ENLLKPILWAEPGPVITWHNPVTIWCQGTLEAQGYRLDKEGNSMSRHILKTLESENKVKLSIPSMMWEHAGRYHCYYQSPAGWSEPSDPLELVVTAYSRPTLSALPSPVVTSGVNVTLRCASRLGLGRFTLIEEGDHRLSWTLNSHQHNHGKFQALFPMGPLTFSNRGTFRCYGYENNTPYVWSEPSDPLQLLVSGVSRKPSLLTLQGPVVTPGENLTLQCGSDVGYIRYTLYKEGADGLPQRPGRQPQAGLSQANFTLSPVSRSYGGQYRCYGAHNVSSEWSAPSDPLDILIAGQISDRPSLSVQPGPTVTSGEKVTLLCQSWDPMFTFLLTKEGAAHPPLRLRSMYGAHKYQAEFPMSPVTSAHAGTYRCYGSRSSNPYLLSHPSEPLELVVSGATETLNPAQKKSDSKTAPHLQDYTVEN", "test": "ELISA, coated protein 100ng/well"}, "LILRA5 [11]": {"target": "T4, LILRA5 (UniProt A6NI73 42-268, limits assumed)", "T4 construct": "construct not described", "T4 sequence (A6NI73 42-268 limits assumed)": "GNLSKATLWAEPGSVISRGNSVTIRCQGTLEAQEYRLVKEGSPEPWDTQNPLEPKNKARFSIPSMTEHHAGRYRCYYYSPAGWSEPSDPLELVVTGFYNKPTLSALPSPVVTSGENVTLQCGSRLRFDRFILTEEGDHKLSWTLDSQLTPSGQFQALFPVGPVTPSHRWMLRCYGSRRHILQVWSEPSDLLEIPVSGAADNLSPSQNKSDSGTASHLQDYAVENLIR", "test": "ELISA, coated protein 100ng/well"}, "LILRB1 [12]": {"target": "T5, LILRB1 (UniProt Q8NHL6 24-461, limits assumed)", "T5 construct": "construct not described", "T5 sequence (Q8NHL6 24-461 limits assumed)": "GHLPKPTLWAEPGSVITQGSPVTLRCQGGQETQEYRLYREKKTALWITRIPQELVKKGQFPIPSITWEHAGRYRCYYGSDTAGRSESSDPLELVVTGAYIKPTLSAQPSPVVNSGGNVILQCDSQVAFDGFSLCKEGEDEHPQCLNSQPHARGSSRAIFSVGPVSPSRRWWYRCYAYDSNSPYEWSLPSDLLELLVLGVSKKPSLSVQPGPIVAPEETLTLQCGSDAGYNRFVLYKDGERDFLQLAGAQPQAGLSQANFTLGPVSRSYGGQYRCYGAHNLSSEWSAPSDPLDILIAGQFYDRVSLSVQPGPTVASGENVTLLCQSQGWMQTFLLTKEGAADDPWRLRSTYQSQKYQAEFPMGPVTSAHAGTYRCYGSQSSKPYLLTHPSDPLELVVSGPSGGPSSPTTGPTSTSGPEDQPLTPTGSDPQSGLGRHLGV", "test": "ELISA, coated protein 100ng/well"}, "LILRB2 [13]": {"target": "T6, LILRB2 (UniProt Q8N423 22-460, limits assumed)", "T6 construct": "construct not described", "T6 sequence (Q8N423 22-460 limits assumed)": "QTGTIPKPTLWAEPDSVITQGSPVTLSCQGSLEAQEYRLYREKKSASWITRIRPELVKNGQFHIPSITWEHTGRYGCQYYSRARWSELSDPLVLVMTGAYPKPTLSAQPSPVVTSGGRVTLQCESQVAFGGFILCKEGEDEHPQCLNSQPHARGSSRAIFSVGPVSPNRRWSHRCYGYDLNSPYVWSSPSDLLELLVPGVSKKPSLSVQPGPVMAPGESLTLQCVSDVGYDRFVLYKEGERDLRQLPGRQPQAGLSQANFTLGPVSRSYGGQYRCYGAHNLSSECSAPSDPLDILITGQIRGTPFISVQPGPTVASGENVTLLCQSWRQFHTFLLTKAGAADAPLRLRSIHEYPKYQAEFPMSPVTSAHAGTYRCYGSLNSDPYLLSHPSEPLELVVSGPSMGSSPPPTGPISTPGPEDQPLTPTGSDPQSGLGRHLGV", "test": "ELISA, coated protein 100ng/well"}, "LILRB3 [14]": {"target": "T7, LILRB3 (UniProt O75022 24-443, limits assumed)", "T7 construct": "construct not described", "T7 sequence (O75022 24-443 limits assumed)": "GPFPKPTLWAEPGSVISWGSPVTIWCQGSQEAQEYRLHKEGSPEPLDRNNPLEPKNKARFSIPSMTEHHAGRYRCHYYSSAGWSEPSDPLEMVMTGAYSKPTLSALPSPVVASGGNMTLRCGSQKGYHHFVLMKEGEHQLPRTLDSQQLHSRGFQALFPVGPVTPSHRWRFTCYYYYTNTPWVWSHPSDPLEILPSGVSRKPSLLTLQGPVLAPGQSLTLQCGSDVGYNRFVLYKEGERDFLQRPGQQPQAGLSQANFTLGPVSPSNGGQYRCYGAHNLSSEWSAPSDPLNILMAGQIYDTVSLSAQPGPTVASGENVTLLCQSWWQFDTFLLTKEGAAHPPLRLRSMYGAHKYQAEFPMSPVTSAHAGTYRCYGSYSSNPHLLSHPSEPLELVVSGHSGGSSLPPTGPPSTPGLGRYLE", "test": "ELISA, coated protein 100ng/well"}, "LILRA3 [15]": {"target": "T8, LILRA3 (UniProt Q8N6C8 24-439)", "T8 construct": "construct not described", "T8 sequence (Q8N6C8 24-439 limits assumed)": "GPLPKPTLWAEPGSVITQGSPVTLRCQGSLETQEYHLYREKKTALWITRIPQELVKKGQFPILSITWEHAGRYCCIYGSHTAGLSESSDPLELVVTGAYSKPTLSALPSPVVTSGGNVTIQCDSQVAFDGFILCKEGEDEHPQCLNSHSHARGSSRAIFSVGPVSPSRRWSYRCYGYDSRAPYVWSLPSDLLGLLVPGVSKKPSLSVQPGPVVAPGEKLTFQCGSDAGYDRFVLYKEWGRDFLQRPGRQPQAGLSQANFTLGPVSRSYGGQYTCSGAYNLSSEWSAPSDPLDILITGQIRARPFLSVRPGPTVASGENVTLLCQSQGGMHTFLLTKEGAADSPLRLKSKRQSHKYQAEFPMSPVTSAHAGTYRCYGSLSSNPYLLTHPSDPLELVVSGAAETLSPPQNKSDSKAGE", "test": "ELISA, coated protein 100ng/well"}, "LILRA6 [16]": {"target": "T9, LILRA6 (UniProt Q6PI73 24-447, limits assumed)", "T9 construct": "construct not described", "T9 sequence (Q6PI73 24-447 limits assumed)": "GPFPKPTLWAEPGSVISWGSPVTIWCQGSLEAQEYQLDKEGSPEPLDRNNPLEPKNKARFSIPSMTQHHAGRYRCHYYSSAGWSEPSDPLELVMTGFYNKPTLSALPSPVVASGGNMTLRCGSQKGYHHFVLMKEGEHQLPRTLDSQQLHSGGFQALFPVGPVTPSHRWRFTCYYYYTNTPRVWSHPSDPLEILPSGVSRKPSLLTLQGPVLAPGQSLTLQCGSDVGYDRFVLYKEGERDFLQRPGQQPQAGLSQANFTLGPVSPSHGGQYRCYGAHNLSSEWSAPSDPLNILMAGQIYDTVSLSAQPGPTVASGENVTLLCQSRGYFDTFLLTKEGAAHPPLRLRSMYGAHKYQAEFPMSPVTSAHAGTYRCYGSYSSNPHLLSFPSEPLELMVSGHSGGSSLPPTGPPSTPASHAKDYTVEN", "test": "ELISA, coated protein 100ng/well"}, "LILRA2 [17]": {"target": "T10, LILRA2 (UniProt Q8N149 24-449, limits assumed)", "T10 construct": "construct not described", "T10 sequence (Q8N149 24-449 limits assumed)": "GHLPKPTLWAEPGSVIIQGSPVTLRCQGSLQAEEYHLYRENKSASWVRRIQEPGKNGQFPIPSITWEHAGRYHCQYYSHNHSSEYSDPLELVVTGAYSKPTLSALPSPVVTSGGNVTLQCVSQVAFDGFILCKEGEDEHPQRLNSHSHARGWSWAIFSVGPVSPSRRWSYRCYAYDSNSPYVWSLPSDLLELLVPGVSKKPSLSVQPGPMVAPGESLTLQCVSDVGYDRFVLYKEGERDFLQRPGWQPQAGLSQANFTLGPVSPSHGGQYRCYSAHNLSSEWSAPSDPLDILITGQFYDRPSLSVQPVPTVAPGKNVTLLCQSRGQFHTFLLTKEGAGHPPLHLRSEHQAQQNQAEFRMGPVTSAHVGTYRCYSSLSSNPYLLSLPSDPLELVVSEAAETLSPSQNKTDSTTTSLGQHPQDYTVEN", "test": "ELISA, coated protein 100ng/well"}, "LILRA1 [18]": {"target": "T11, LILRA1 (UniProt O75019 17-461, limits assumed)", "T11 construct": "construct not described", "T11 sequence (O75019 17-461 limits assumed)": "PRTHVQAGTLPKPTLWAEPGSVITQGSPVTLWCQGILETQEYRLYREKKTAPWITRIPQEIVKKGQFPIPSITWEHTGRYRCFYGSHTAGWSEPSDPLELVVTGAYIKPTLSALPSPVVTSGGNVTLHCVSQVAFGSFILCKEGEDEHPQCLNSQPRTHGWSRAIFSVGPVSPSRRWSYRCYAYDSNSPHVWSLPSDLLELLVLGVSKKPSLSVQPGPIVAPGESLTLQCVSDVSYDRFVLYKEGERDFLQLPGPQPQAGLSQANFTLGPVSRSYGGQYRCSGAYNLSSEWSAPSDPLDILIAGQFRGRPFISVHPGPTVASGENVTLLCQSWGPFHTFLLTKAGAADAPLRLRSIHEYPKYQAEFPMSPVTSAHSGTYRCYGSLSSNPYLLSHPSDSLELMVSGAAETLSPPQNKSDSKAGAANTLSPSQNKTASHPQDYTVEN", "test": "ELISA, coated protein 100ng/well"}, "LILRB5 [19]": {"target": "T12, LILRB5 (UniProt O75023 24-458, limits assumed)", "T12 construct": "construct not described", "T12 sequence (O75023 24-458 limits assumed)": "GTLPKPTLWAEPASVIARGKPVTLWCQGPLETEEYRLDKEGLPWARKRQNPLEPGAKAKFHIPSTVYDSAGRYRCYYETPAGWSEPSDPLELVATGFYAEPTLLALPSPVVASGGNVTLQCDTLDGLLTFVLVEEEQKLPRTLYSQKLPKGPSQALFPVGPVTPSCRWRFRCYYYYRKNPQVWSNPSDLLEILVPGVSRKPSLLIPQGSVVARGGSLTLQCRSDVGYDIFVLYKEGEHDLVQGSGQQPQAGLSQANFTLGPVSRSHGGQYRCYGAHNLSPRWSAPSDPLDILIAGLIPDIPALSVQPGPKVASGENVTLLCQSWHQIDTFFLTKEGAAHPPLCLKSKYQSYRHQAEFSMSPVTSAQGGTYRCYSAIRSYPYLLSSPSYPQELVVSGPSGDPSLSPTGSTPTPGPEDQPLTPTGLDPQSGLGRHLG", "test": "ELISA, coated protein 100ng/well"}, "LILRA4 [20]": {"target": "T3, LILRA4", "test": "ELISA, coated protein 100ng/well, antibody 50μg/mL"}, "LILRA5 [21]": {"target": "T4, LILRA5", "test": "ELISA, coated protein 100ng/well, antibody 50μg/mL"}, "LILRB1 [22]": {"target": "T5, LILRB1", "test": "ELISA, coated protein 100ng/well, antibody 50μg/mL"}, "LILRB2 [23]": {"target": "T6, LILRB2", "test": "ELISA, coated protein 100ng/well, antibody 50μg/mL"}, "LILRB4抗原 (人LILRB4蛋白胞外段) [24]": {"target": "T1, LILRB4抗原 (人LILRB4蛋白胞外段)", "test": "ELISA, coated protein 100ng/well, antibody 50μg/mL"}, "LILRB3 [25]": {"target": "T7, LILRB3", "test": "ELISA, coated protein 100ng/well, antibody 50μg/mL"}, "LILRA3 [26]": {"target": "T8, LILRA3", "test": "ELISA, coated protein 100ng/well, antibody 50μg/mL"}, "LILRA6 [27]": {"target": "T9, LILRA6", "test": "ELISA, coated protein 100ng/well, antibody 50μg/mL"}, "LILRA2 [28]": {"target": "T10, LILRA2", "test": "ELISA, coated protein 100ng/well, antibody 50μg/mL"}, "LILRA1 [29]": {"target": "T11, LILRA1", "test": "ELISA, coated protein 100ng/well, antibody 50μg/mL"}, "LILRB5 [30]": {"target": "T12, LILRB5", "test": "ELISA, coated protein 100ng/well, antibody 50μg/mL"}},
  "note": "Substitutions are numbered along the chain they refer to. Like-named read-outs stand apart in the source and are kept apart here.",
  "data": [
    {"binder": "B1", "values": [
      {"measurement": "EC50", "setting": "LILRB4抗原 (人LILRB4蛋白胞外段) [1]", "value": 0.014, "unit": "µg/mL"},
      {"measurement": "IC50, NF-κB luciferase reporter in THP-1-NF-κB-Luc cells stimulated with ApoE", "setting": "THP-1细胞表面的LILRB4 [2]", "value": 3.44, "unit": "µg/mL"},
      {"measurement": "EC50", "setting": "THP-1细胞表面的LILRB4 [3]", "value": 0.186, "unit": "µg/mL"},
      {"measurement": "IC50", "setting": "THP-1细胞表面的LILRB4 [4]", "value": 2.56, "unit": "µg/mL"},
      {"measurement": "IC50 of inhibition of ARG1 secretion by THP-1 cells with ApoE (arginase activity)", "setting": "THP-1细胞表面的LILRB4 [5]", "value": 98.5, "unit": "µg/mL"}
    ]},
    {"binder": "B2", "values": [
      {"measurement": "EC50", "setting": "LILRB4抗原 (人LILRB4蛋白胞外段) [1]", "value": 0.0174, "unit": "µg/mL"},
      {"measurement": "IC50, NF-κB luciferase reporter in THP-1-NF-κB-Luc cells stimulated with ApoE", "setting": "THP-1细胞表面的LILRB4 [2]", "value": 0.756, "unit": "µg/mL"},
      {"measurement": "EC50", "setting": "THP-1细胞表面的LILRB4 [3]", "value": 0.181, "unit": "µg/mL"},
      {"measurement": "IC50", "setting": "THP-1细胞表面的LILRB4 [4]", "value": 0.48, "unit": "µg/mL"},
      {"measurement": "IC50 of inhibition of ARG1 secretion by THP-1 cells with ApoE (arginase activity)", "setting": "THP-1细胞表面的LILRB4 [5]", "value": 31.2, "unit": "µg/mL"}
    ]},
    {"binder": "B3", "values": [
      {"measurement": "EC50", "setting": "LILRB4抗原 (人LILRB4蛋白胞外段) [1]", "value": 0.343, "unit": "µg/mL"}
    ]},
    {"binder": "B4", "values": [
      {"measurement": "IC50 of inhibition of ARG1 secretion by THP-1 cells with ApoE (arginase activity)", "setting": "THP-1细胞表面的LILRB4 [6]", "value": 23.9, "unit": "µg/mL"},
      {"measurement": "EC50", "setting": "THP-1细胞表面的LILRB4 [7]", "value": 0.306, "unit": "µg/mL"},
      {"measurement": "EC50", "setting": "LILRB4抗原 (人LILRB4蛋白胞外段) [8]", "value": 0.00835, "unit": "µg/mL"},
      {"measurement": "IC50", "setting": "THP-1细胞表面的LILRB4 [9]", "value": 0.204, "unit": "µg/mL"},
      {"measurement": "binding result", "setting": "LILRA4 [10]", "value": "no binding (tested: 50μg/mL)"},
      {"measurement": "binding result", "setting": "LILRA5 [11]", "value": "no binding (tested: 50μg/mL)"},
      {"measurement": "binding result", "setting": "LILRB1 [12]", "value": "no binding (tested: 50μg/mL)"},
      {"measurement": "binding result", "setting": "LILRB2 [13]", "value": "no binding (tested: 50μg/mL)"},
      {"measurement": "binding result", "setting": "LILRB3 [14]", "value": "no binding (tested: 50μg/mL)"},
      {"measurement": "binding result", "setting": "LILRA3 [15]", "value": "no binding (tested: 50μg/mL)"},
      {"measurement": "binding result", "setting": "LILRA6 [16]", "value": "no binding (tested: 50μg/mL)"},
      {"measurement": "binding result", "setting": "LILRA2 [17]", "value": "no binding (tested: 50μg/mL)"},
      {"measurement": "binding result", "setting": "LILRA1 [18]", "value": "no binding (tested: 50μg/mL)"},
      {"measurement": "binding result", "setting": "LILRB5 [19]", "value": "no binding (tested: 50μg/mL)"},
      {"measurement": "OD 450nm/630nm", "setting": "LILRA4 [20]", "value": 0.092, "unit": "OD"},
      {"measurement": "OD 450nm/630nm", "setting": "LILRA5 [21]", "value": 0.077, "unit": "OD"},
      {"measurement": "OD 450nm/630nm", "setting": "LILRB1 [22]", "value": 0.064, "unit": "OD"},
      {"measurement": "OD 450nm/630nm", "setting": "LILRB2 [23]", "value": 0.036, "unit": "OD"},
      {"measurement": "OD 450nm/630nm", "setting": "LILRB4抗原 (人LILRB4蛋白胞外段) [24]", "value": 2.97, "unit": "OD"},
      {"measurement": "OD 450nm/630nm", "setting": "LILRB3 [25]", "value": 0.072, "unit": "OD"},
      {"measurement": "OD 450nm/630nm", "setting": "LILRA3 [26]", "value": 0.068, "unit": "OD"},
      {"measurement": "OD 450nm/630nm", "setting": "LILRA6 [27]", "value": 0.054, "unit": "OD"},
      {"measurement": "OD 450nm/630nm", "setting": "LILRA2 [28]", "value": 0.083, "unit": "OD"},
      {"measurement": "OD 450nm/630nm", "setting": "LILRA1 [29]", "value": 0.12, "unit": "OD"},
      {"measurement": "OD 450nm/630nm", "setting": "LILRB5 [30]", "value": 0.197, "unit": "OD"}
    ]}
  ]
}
